Measurements as given in patent US20250099548A1, “PHARMACEUTICAL COMPOSITION FOR PREVENTING OR TREATING DEGENERATIVE BRAIN DISEASES, CONTAINING GLUCAGON-LIKE PEPTIDE-1 AND INTERLEUKIN-1 RECEPTOR ANTAGONIST” (GI INNOVATION, INC., priority 2022, published 2025).

B1: GI210B1CN: fusion protein dimer comprising GLP-1 and an Fc domain of IgG4; SEQ ID NO: 22 (protein)
chain: HGEGTFTSDVSSYLEEQAAKEFIAWLVKGGGGGGGSGGGGSGGGGSGGAESKYGPPCPPCPAPEAAGGPSVFLFPPKPKDQLMISRTPEVTCVVVDVSQEDPEVQFNWYVDGVEVHNAKTKPREEQFNSTYRVVSVLTVLHQDWLNGKEYKCKVSNKGLPSSIEKTISKAKGQPREPQVYTLPPSQEEMTKNQVSLTCLVKGFYPSDIAVEWESNGQPENNYKTTPPVLDSDGSFFLYSRLTVDKSRWQEGNVFSCSVLHEALHNHYTQKSLSLSLG
modifications: dimer; GLP-1-IgG4 Fc

Columns and labels:
[1] = in vivo; cited from earlier work
Tg-APP/PS1 mice [2] = assay: MAP-2 immunofluorescence staining of hippocampal CA1 region; format: in vivo, mouse; details: Example 2; GI210B1, GI210B1C1, GI210B1CN at 1.2, 0.7778, 1.1745 mg/kg intraperitoneal, 4 times for 2 weeks
Excerpt: Long-term memory is regulated at synapses between axons of neurons and dendrites of target neurons, and the microstructure of neurons is greatly influenced by the state of neuron health. Changes in the microstructure of dendrites of neurons are important for maintaining memory. The microstructure of the dendrites of such neurons can be observed as an image by staining with an anti-MAP-2 antibody (GeneTex, CatNo. GTX133109) located in the dendrites.
Therefore, in order to determine the mechanism of action of cognitive function improvement and memory recovery effects of GI210B1, the Tg-APP/PS1 mice administered with GI210B1 (Tg+GI210B1), the wild type mice (WT) as a normal group, and the Tg-APP/PS1 mice (Tg or Tg+Veh) as a control group were sacrificed, and then the brain tissue was extracted, and the microstructural status of the dendrites (dendritic process) of the hippocampus was analyzed.
In the same manner as in Example 1.4.1 above, the mice from each group were sacrificed, and then the brain tissue was extracted, and the microstructural status of the dendrites of the hippocampus was analyzed.

Tg-APP/PS1 mice [3] = assay: Aβ plaque deposition in brain tissue, thioflavin S staining; format: in vivo, mouse; details: Example 2; GI210B1, GI210B1C1, GI210B1CN at 1.2, 0.7778, 1.1745 mg/kg intraperitoneal, 4 times for 2 weeks
Experimental: Accordingly, in order to confirm the effect of treating Alzheimer's disease by intraperitoneal administration of GI210B1, the Tg-APP/PS1 mice administered with GI210B1 (Tg+GI210B1) and the Tg-APP/PS1 mice (Tg+Veh), a control group, were sacrificed, and then the brain tissue was extracted, and Aβ plaques were stained using thioflavin S, and then the degree of Aβ plaque deposition in the parietal cortex, hippocampus, and piriform cortex regions was analyzed.
Specifically, for immunohistochemical analysis using thioflavin S staining, the brain was collected after perfusion for the mouse with 4% paraformaldehyde, and then the brain was further fixed with 4% paraformaldehyde overnight at 4° C. The brain tissue sections were prepared by cutting the fixed brain tissue to a thickness of […] using a vibratome. The prepared brain tissue sections were stained using thioflavin S by a known method. At that time, the stained image was analyzed using MetaMorph Microscopy Automation & Image Analysis software (Molecular device). The amount of plaque was quantified and expressed as the number of plaques per unit area and the sum of the plaque areas.
The Tg-APP/PS1 mice were prepared in the same manner as in Example 1.1 above. The test substance was prepared by diluting GI210B1, GI210B1C1, or GI210B1CN obtained in Preparation Example 1 to 3 in saline. Thereafter, the prepared test substances were each intraperitoneally administered to the 6.5-month-old Tg-APP/PS1 mice at a concentration of 1.2 mg/kg, 0.7778 mg/kg, and 1.1745 mg/kg a total of 4 times for 2 weeks (FIG. 23).
In the same manner as in Example 1.3 above, the mice were sacrificed, and then the brain tissue was extracted, and the degree of Aβ plaque deposition in the parietal cortex, hippocampus, and piriform cortex regions was analyzed using thioflavin S, which stains Aβ plaques.
The Tg-APP/PS1 mice were prepared in the same manner as in Example 1.1 above. The test substance was prepared by diluting GLP-1 (Peptron), GI210B1C1 obtained in Preparation Example 2 and GI212B2 obtained in Preparation Example 4, anakinra (Amgen, Kineret-inj), and the anti-IL-1 antibody (BioXcell, BE0246) in saline to concentrations of 0.0371 mg/kg, 1.1745 mg/kg, 1.8722 mg/kg, 0.2041 mg/kg, and 1.77 mg/kg, respectively. Thereafter, the prepared test substances were intraperitoneally administered to the 6.5-month-old Tg-APP/PS1 mice a total of 4 times for 2 weeks, as shown in Table 6 below (FIG. 30). […]
In the same manner as in Example 1.3 above, the mice from each group were sacrificed, and then the brain tissue was extracted, and the degree of Aβ plaque deposition in the parietal cortex, hippocampus, and piriform cortex regions was analyzed using thioflavin S, which stains Aβ plaques.

Molecule | biological half-life [1] | expression level of MAP-2 in the CA1 region of the hippocampus (Tg-APP/PS1 mice [2]) | amount of plaque deposited in the brain (number of plaques per unit area and sum of plaque areas) (Tg-APP/PS1 mice [3])
wild type GLP-1: wild type glucagon-like peptide-1, cleaved and inactivated by DPP-4 in vivo; SEQ ID NO: 1 | 1-2 minutes |  | 
B1 |  | higher than that of the control group (Tg+Veh) | tended to be reduced
